± gives the uncertainty stated by the source.
B1: Histidine--tRNA ligase, cytoplasmic, residues 8 to 45; numbered along this chain, P12081 (parent)
chain: EELVKLQGERVRGLKQQKASAELIEEEVAKLLKLKAQL

Variants of: B1
Experiment: abundance fitness (aPCA) (normalised: wild type 0, dead -1); higher = more abundant; growth selection in yeast, the domain comes from the species named
Settings: Homo sapiens

| Variant | abundance fitness |
| --- | --- |
| EELVKLQGERVRGLKQQKASAELIEDEVAKLLKLKAQL [E26D] | -0.009 ± 0.096 |
| EELVKLQGERVRGLKQQKASAELIEFEVAKLLKLKAQL [E26F] | -0.038 ± 0.083 |
| EELVKLQGERVRGLKQQKASAELIEGEVAKLLKLKAQL [E26G] | -0.146 ± 0.11 |
| EELVKLQGERVRGLKQQKASAELIEHEVAKLLKLKAQL [E26H] | 0.284 ± 0.12 |
| EELVKLQGERVRGLKQQKASAELIEIEVAKLLKLKAQL [E26I] | 0.086 ± 0.13 |
| EELVKLQGERVRGLKQQKASAELIEKEVAKLLKLKAQL [E26K] | 0.184 ± 0.092 |
| EELVKLQGERVRGLKQQKASAELIELEVAKLLKLKAQL [E26L] | -0.046 ± 0.067 |
| EELVKLQGERVRGLKQQKASAELIEMEVAKLLKLKAQL [E26M] | 0.168 ± 0.1 |
| EELVKLQGERVRGLKQQKASAELIEPEVAKLLKLKAQL [E26P] | -0.024 ± 0.084 |
| EELVKLQGERVRGLKQQKASAELIEQEVAKLLKLKAQL [E26Q] | 0.139 ± 0.093 |
| EELVKLQGERVRGLKQQKASAELIEREVAKLLKLKAQL [E26R] | 0.1 ± 0.08 |
| EELVKLQGERVRGLKQQKASAELIESEVAKLLKLKAQL [E26S] | 0.184 ± 0.074 |
| EELVKLQGERVRGLKQQKASAELIEVEVAKLLKLKAQL [E26V] | -0.116 ± 0.084 |
| EELVKLQGERVRGLKQQKASAELIEWEVAKLLKLKAQL [E26W] | -0.594 ± 0.12 |
| EELVKLQGERVRGLKQQKASAELIEEAVAKLLKLKAQL [E27A] | -0.108 ± 0.089 |
| EELVKLQGERVRGLKQQKASAELIEEHVAKLLKLKAQL [E27H] | -0.436 ± 0.093 |
| EELVKLQGERVRGLKQQKASAELIEEIVAKLLKLKAQL [E27I] | -1.47 ± 0.15 |
| EELVKLQGERVRGLKQQKASAELIEEKVAKLLKLKAQL [E27K] | -0.649 ± 0.15 |
| EELVKLQGERVRGLKQQKASAELIEEMVAKLLKLKAQL [E27M] | -0.874 ± 0.16 |
| EELVKLQGERVRGLKQQKASAELIEENVAKLLKLKAQL [E27N] | -0.079 ± 0.078 |
| EELVKLQGERVRGLKQQKASAELIEEPVAKLLKLKAQL [E27P] | -0.214 ± 0.091 |
| EELVKLQGERVRGLKQQKASAELIEERVAKLLKLKAQL [E27R] | -0.741 ± 0.084 |

| Variant | abundance fitness |
| --- | --- |
| EELVKLQGERVRGLKQQKASAELIEESVAKLLKLKAQL [E27S] | -0.291 ± 0.077 |
| EELVKLQGERVRGLKQQKASAELIEETVAKLLKLKAQL [E27T] | -0.798 ± 0.085 |
| EELVKLQGERVRGLKQQKASAELIEEVVAKLLKLKAQL [E27V] | -1.1 ± 0.093 |
| EELVKLQGERVRGLKQQKASAELIEEWVAKLLKLKAQL [E27W] | -1.11 ± 0.13 |
| EELVKLQGERVRGLKQQKASAELIEEEAAKLLKLKAQL [V28A] | 0.177 ± 0.095 |
| EELVKLQGERVRGLKQQKASAELIEEECAKLLKLKAQL [V28C] | -0.076 ± 0.093 |
| EELVKLQGERVRGLKQQKASAELIEEEDAKLLKLKAQL [V28D] | 0.152 ± 0.11 |
| EELVKLQGERVRGLKQQKASAELIEEEEAKLLKLKAQL [V28E] | 0.316 ± 0.13 |
| EELVKLQGERVRGLKQQKASAELIEEEFAKLLKLKAQL [V28F] | -0.378 ± 0.078 |
| EELVKLQGERVRGLKQQKASAELIEEEGAKLLKLKAQL [V28G] | -0.195 ± 0.11 |
| EELVKLQGERVRGLKQQKASAELIEEEHAKLLKLKAQL [V28H] | -0.012 ± 0.1 |
| EELVKLQGERVRGLKQQKASAELIEEEIAKLLKLKAQL [V28I] | -0.303 ± 0.09 |
| EELVKLQGERVRGLKQQKASAELIEEEKAKLLKLKAQL [V28K] | 0.107 ± 0.14 |
| EELVKLQGERVRGLKQQKASAELIEEELAKLLKLKAQL [V28L] | -0.271 ± 0.076 |
| EELVKLQGERVRGLKQQKASAELIEEEMAKLLKLKAQL [V28M] | 0.06 ± 0.1 |
| EELVKLQGERVRGLKQQKASAELIEEENAKLLKLKAQL [V28N] | 0.081 ± 0.098 |
| EELVKLQGERVRGLKQQKASAELIEEEPAKLLKLKAQL [V28P] | -0.119 ± 0.1 |
| EELVKLQGERVRGLKQQKASAELIEEEQAKLLKLKAQL [V28Q] | 0.366 ± 0.1 |
| EELVKLQGERVRGLKQQKASAELIEEERAKLLKLKAQL [V28R] | -0.027 ± 0.084 |
| EELVKLQGERVRGLKQQKASAELIEEESAKLLKLKAQL [V28S] | 0.094 ± 0.08 |
| EELVKLQGERVRGLKQQKASAELIEEETAKLLKLKAQL [V28T] | 0.159 ± 0.099 |
| EELVKLQGERVRGLKQQKASAELIEEEVCKLLKLKAQL [A29C] | -0.415 ± 0.093 |

| Variant | abundance fitness |
| --- | --- |
| EELVKLQGERVRGLKQQKASAELIEEEVDKLLKLKAQL [A29D] | 0.106 ± 0.11 |
| EELVKLQGERVRGLKQQKASAELIEEEVFKLLKLKAQL [A29F] | -0.8 ± 0.11 |
| EELVKLQGERVRGLKQQKASAELIEEEVGKLLKLKAQL [A29G] | -0.092 ± 0.09 |
| EELVKLQGERVRGLKQQKASAELIEEEVHKLLKLKAQL [A29H] | -0.265 ± 0.093 |
| EELVKLQGERVRGLKQQKASAELIEEEVIKLLKLKAQL [A29I] | -0.618 ± 0.11 |
| EELVKLQGERVRGLKQQKASAELIEEEVKKLLKLKAQL [A29K] | -0.299 ± 0.17 |
| EELVKLQGERVRGLKQQKASAELIEEEVLKLLKLKAQL [A29L] | -0.462 ± 0.083 |
| EELVKLQGERVRGLKQQKASAELIEEEVMKLLKLKAQL [A29M] | -0.069 ± 0.11 |
| EELVKLQGERVRGLKQQKASAELIEEEVNKLLKLKAQL [A29N] | -0.183 ± 0.081 |
| EELVKLQGERVRGLKQQKASAELIEEEVPKLLKLKAQL [A29P] | -0.37 ± 0.09 |
| EELVKLQGERVRGLKQQKASAELIEEEVQKLLKLKAQL [A29Q] | 0.07 ± 0.11 |
| EELVKLQGERVRGLKQQKASAELIEEEVRKLLKLKAQL [A29R] | -0.189 ± 0.076 |
| EELVKLQGERVRGLKQQKASAELIEEEVTKLLKLKAQL [A29T] | -0.26 ± 0.1 |
| EELVKLQGERVRGLKQQKASAELIEEEVVKLLKLKAQL [A29V] | -0.277 ± 0.084 |
| EELVKLQGERVRGLKQQKASAELIEEEVWKLLKLKAQL [A29W] | -0.804 ± 0.17 |
| EELVKLQGERVRGLKQQKASAELIEEEVAALLKLKAQL [K30A] | -0.04 ± 0.081 |
| EELVKLQGERVRGLKQQKASAELIEEEVACLLKLKAQL [K30C] | -0.411 ± 0.08 |
| EELVKLQGERVRGLKQQKASAELIEEEVADLLKLKAQL [K30D] | 0.072 ± 0.15 |
| EELVKLQGERVRGLKQQKASAELIEEEVAELLKLKAQL [K30E] | 0.1 ± 0.09 |
| EELVKLQGERVRGLKQQKASAELIEEEVAFLLKLKAQL [K30F] | -0.722 ± 0.097 |
| EELVKLQGERVRGLKQQKASAELIEEEVAGLLKLKAQL [K30G] | -0.364 ± 0.11 |

— the Human Domainome abundance scans (Beltran et al. 2025)
